The target of experiment [1] is T1, ActRIIA-huFc (human).
T1 construct: Used biotinylated in the ELISA screens; also called huActRIIA-huFc; biotin-ActRIIA-huFc
Description: BIAcore. (SPR reads the build-up and loss of mass on a sensor chip optically.)

Experiment [2] concerns the target T2, activin type IIB receptor (ActRIIB) on C2C12/pMARE-luc cells co-transfected with ALK4 (Homo sapiens (Human), UniProt Q13705 19-134).
T2 chain: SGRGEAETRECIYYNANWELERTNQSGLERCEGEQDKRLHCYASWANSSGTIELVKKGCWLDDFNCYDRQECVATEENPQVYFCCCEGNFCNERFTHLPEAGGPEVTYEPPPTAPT
The experiment can be described thus: cell-based or functional assay.

Experiment [3] concerns the target activin type IIA receptor (ActRIIA) on C2C12/pMARE-luc cells co-transfected with ALK4 (Homo sapiens (Human), UniProt P27037 20-513). The experiment can be described thus: cell-based or functional assay.
Experiment [4] has as its target T1, ActRIIA-huFc. Description: binding affinity, method not stated.
Experiment [5] has as its target T1, ActRIIA-huFc. The experiment can be described thus: KinExA. On the technique in general: In KinExA the mixture passes briefly over coated beads that capture the unbound partner.

Positions count from the first letter of the chain named.

Data on four molecules can be found in patent US20240327526A1 (Amgen, published 2024).

T1 sequence (chain, as listed by the source limits assumed): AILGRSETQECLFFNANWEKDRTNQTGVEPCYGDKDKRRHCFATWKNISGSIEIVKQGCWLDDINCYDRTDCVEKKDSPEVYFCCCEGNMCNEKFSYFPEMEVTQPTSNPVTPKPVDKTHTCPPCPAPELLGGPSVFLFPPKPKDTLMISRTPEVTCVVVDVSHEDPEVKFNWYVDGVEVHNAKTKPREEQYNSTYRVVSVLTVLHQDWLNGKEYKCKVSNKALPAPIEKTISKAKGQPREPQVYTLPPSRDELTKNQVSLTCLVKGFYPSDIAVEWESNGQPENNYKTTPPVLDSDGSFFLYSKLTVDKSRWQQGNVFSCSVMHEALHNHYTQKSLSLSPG
Sequence of activin type IIA receptor (ActRIIA) on C2C12/pMARE-luc cells co-transfected with ALK4 (P27037 20-513): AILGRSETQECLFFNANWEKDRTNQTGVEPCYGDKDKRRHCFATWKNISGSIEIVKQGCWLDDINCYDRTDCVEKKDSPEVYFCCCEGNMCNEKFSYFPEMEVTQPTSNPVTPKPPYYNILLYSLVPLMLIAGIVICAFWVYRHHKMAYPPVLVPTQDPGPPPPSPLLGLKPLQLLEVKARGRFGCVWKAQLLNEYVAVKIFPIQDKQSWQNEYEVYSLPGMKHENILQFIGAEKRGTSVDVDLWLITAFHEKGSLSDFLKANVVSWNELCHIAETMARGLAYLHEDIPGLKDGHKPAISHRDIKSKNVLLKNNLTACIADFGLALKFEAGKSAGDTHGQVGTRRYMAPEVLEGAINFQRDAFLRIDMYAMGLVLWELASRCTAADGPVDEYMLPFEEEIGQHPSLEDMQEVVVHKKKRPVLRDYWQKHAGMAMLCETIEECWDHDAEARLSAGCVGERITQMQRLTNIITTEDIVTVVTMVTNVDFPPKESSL

B1: Anti-ActRIIB human IgG R31-1 (antibody, V domains shown)
VH: EVQLLESGGGLVQPGGSLRLSCAASGFTFRNYAMSWVRQAPGKGLEWVSGISVTGGSTYYTDSVKGRFTVSRDNSRNTLYLQMNSLRAEDTAVYYCAKVYYSSFFDYWGQGTLVTVSS
VL: QTVVTQEPSFSVSPGGTVTLTCGFNSGSVSTSYYPSWYQQTPGQAPRTLIYNTNTRSSGVPDRFSGSILGNKAALTITGAQADDESDYYCVLYMGSGIWVFGGGTKLTVLG
notes: Human IgG2/kappa from Xenomouse immunization with ActRIIB-huFc; also called parental 31-1; parental molecule R31-1
For B1, the dissociation constant Kd with ActRIIA-huFc [1] was 4 nM; in the experiment with ActRIIA-huFc [4] it was approximately 1 nM. Also, in experiment [2], the “Cell-Based IC50, ActRIIB Signaling (luciferase reporter, C2C12/pMARE-luc cells with ActRIIB + ALK4, 4 nM myostatin or activin)” value stood at 8 nM. Further, the “Cell-Based IC50, ActRIIA Signaling (luciferase reporter, C2C12/pMARE-luc cells with ActRIIA + ALK4, 4 nM myostatin or activin)” value in experiment [3] was 2 nM.

B2: M43 (antibody, human IgG2, lambda, V domains shown)
VH: B1 VH with Y32S, Y59F, S102Y
VL: B1 VL with Y34W, Y93W
notes: fully human
As for B2, the values for the dissociation constant Kd in the experiment with ActRIIA-huFc [5] and in the experiment with ActRIIA-huFc [1] were less than 1 pM and 0.001 nM, respectively. The “fold improvement of affinity over the parental molecule R31-1” value (shortened to “fold improvement of affinity”) in the experiment with ActRIIA-huFc [5] was not below 1000 fold. For the same molecule, in experiment [2], the “Cell-Based IC50, ActRIIB Signaling (luciferase reporter, C2C12/pMARE-luc cells with ActRIIB + ALK4, 4 nM myostatin or activin)” value worked out at 2 nM.

B3: M25 (antibody, human IgG2, lambda, V domains shown)
VH: B1 VH with Y32S, G50A, S102Y
VL: B1 VL with W99H
In the case of B3, in the experiment with ActRIIA-huFc [5], the Kd is less than 1 pM and the “fold improvement of affinity” value was not below 1000 fold.

B4: M37 (antibody, human IgG2, lambda, V domains shown)
VH: B1 VH with S35A, Y59F, S102T
VL: B1 VL with Y93W
In the case of B4, in the experiment with ActRIIA-huFc [5], the Kd was less than 1 pM and the “fold improvement of affinity” value is not below 1000 fold.

As a reminder, the Kd is the concentration at which binding is half-saturated. High values mean lower affinity, low ones higher affinity.
